Laboratory results published in article PMC2814137, “Crystal Structural and Functional Analysis of the Putative Dipeptidase from Pyrococcus horikoshii OT3” (Journal of Biophysics, 2009).

Columns and labels:
[1] = substrate: CC(C)[C@H](N)C(=O)N1CCC[C@H]1C(=O)O; test: colorimetric ninhydrin prolidase assay; assay type: biochemical, Pyrococcus horikoshii; details: 1.2 mM CoCl2, 50 mM MOPS pH 7.0, 100°C, hydrochloride salt
[2] = target: the molecule itself; test: AUC; sedimentation equilibrium, 20°C, 13 K rpm, three protein concentrations between 0.93 and 0.31 mg/mL, 20 mM Tris pH 8.0, 100 mM NaCl; monomer/dimer

B1: putative dipeptidase (Phdpd) from Pyrococcus horikoshii OT3 (enzyme, UniProt O58691 1-356, looked up)
chain: MRLEKFIHLLGERGFDGALISPGTNLYYLTGLRLHEVGERLAILAVSAEGDYRFLAPSLYENVVNNFPATFWHDGENPYAKLREILEELGISKGRILIEDTMRADWLIGIMKLGKFTFQPLSSLIKELRMIKDKEEVKMMEHASRIADKVFEEILTWDLIGMKERELALKIELLIRELSDGIAFEPIVASGENAANPHHEPGERKIRKGDIIILDYGARWKGYCSDITRTIGLGELDERLVKIYEVVKDAQESAFKAVREGIKAKDVDSRAREVISKAGYGEYFIHRTGHGLGLDVHEEPYIGPDGEVILKNGMTFTIEPGIYVPGLGGVRIEDDIVVDEGKGRRLTKAERELIIL
notes: putative dipeptidase / X-Pro dipeptidase (prolidase), Project ID PH0974, Pyrococcus horikoshii OT3; No tag is mentioned; the plasmid was made by the 'super-rare-cutter system' (manuscript in preparation); A selenomethionine-labelled crystal was used for MAD phasing only; also called PH0974; X-Pro dipeptidase (prolidase) of Project ID PH0974; source: E. coli BL21-CodonPlus (DE3)-RIL, purified …
- Km [1]: 5.0 mM
- kcat [1]: 541 s⁻¹
- stoichiometry N [2]: 2
